Measured values reported in US20240091164.

Molecular target: fluorescein isothiocyanate-tagged BSA (FITC-BSA) (UniProt P02769)
Sequence (P02769 25-607): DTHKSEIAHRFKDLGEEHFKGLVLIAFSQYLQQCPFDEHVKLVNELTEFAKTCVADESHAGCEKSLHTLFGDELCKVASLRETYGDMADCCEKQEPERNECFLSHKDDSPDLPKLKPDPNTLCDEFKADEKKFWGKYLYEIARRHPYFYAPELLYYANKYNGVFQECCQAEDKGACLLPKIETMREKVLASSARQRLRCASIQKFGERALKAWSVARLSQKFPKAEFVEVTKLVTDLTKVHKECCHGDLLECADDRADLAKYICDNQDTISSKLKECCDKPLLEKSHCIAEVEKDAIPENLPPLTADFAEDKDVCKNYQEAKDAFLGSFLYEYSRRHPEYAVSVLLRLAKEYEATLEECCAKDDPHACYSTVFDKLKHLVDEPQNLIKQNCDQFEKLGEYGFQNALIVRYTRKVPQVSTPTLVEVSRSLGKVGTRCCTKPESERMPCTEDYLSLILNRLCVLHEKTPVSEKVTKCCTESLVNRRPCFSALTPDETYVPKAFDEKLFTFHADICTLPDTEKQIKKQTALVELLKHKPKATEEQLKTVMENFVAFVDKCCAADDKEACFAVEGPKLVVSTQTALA

trypsin
increase in fluorescence from proteolytic cleavage of quenched FITC-BSA: This assay confirmed the ability of trypsin@NP to cleave BSA
